Results: PMC3438196

Key:
Experiment in all cases: two-hybrid; MAPPIT (mammalian two-hybrid) in intact HEK293T cells: bait on the EpoR/leptin receptor chimera, prey on gp130 fragments, pXP2d2-rPAP1-luciferase reporter; fold induction of luciferase, Epo-stimulated (10 ng/ml hEpo) over unstimulated; 6-well or 96-well calcium phosphate transfection
[1] = biological target: Apobec3G N31S MAPPIT bait (human) (UniProt Q9HC16)
[2] = biological target: Apobec3G R11S MAPPIT bait (human) (UniProt Q9HC16)
[3] = biological target: Apobec3G R14S MAPPIT bait (human) (UniProt Q9HC16)
[4] = biological target: Apobec3G TF106-107AA MAPPIT bait (human) (UniProt Q9HC16)
[5] = biological target: Apobec3G E110K MAPPIT bait (human) (UniProt Q9HC16)
[6] = biological target: Apobec3G TK98-99AD MAPPIT bait (human) (UniProt Q9HC16)
[7] = biological target: Apobec3G Y124A MAPPIT bait (human) (UniProt Q9HC16)
[8] = biological target: Apobec3G R55A MAPPIT bait (human) (UniProt Q9HC16)
[9] = biological target: Apobec3G S137A MAPPIT bait (human) (UniProt Q9HC16)
[10] = biological target: Apobec3G T32D MAPPIT bait (human) (UniProt Q9HC16)
[11] = biological target: Apobec3G Y19A MAPPIT bait (human) (UniProt Q9HC16)
[12] = biological target: Apobec3G N20A MAPPIT bait (human) (UniProt Q9HC16)
[13] = biological target: Apobec3G R136A MAPPIT bait (human) (UniProt Q9HC16)
[14] = biological target: Apobec3G K63E MAPPIT bait (human) (UniProt Q9HC16)
[15] = biological target: Apobec3G E110S MAPPIT bait (human) (UniProt Q9HC16)
[16] = biological target: Apobec3G QE132-133AA MAPPIT bait (human) (UniProt Q9HC16)
Sequence of Apobec3G QE132-133AA MAPPIT bait (human) (Q9HC16 whole entry Q132A/E133A): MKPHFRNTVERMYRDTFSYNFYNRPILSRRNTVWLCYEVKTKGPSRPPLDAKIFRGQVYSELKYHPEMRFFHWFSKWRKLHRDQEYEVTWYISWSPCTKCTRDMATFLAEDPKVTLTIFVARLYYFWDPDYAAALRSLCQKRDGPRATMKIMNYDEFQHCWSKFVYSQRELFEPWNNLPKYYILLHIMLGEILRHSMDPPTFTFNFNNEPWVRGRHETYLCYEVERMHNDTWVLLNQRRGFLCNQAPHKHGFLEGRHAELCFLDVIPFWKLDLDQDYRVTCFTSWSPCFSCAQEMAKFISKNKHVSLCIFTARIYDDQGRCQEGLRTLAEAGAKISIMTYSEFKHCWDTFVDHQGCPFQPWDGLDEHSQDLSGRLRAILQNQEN

Sequence of Apobec3G R11S MAPPIT bait (human) (Q9HC16 whole entry R11S): as the sequence (Q9HC16 whole entry Q132A/E133A) above, with R11S, A132Q, A133E counted along it
Sequence of Apobec3G N20A MAPPIT bait (human) (Q9HC16 whole entry N20A): as the sequence (Q9HC16 whole entry Q132A/E133A) above, with N20A, A132Q, A133E counted along it
Sequence of Apobec3G S137A MAPPIT bait (human) (Q9HC16 whole entry S137A): as the sequence (Q9HC16 whole entry Q132A/E133A) above, with A132Q, A133E, S137A counted along it
Sequence of Apobec3G E110S MAPPIT bait (human) (Q9HC16 whole entry E110S): as the sequence (Q9HC16 whole entry Q132A/E133A) above, with E110S, A132Q, A133E counted along it
Sequence of Apobec3G E110K MAPPIT bait (human) (Q9HC16 whole entry E110K): as the sequence (Q9HC16 whole entry Q132A/E133A) above, with E110K, A132Q, A133E counted along it
Sequence of Apobec3G TK98-99AD MAPPIT bait (human) (Q9HC16 whole entry T98A/K99D): as the sequence (Q9HC16 whole entry Q132A/E133A) above, with T98A, K99D, A132Q, A133E counted along it
Sequence of Apobec3G R14S MAPPIT bait (human) (Q9HC16 whole entry R14S): as the sequence (Q9HC16 whole entry Q132A/E133A) above, with R14S, A132Q, A133E counted along it
Sequence of Apobec3G N31S MAPPIT bait (human) (Q9HC16 whole entry N31S): as the sequence (Q9HC16 whole entry Q132A/E133A) above, with N31S, A132Q, A133E counted along it
Sequence of Apobec3G TF106-107AA MAPPIT bait (human) (Q9HC16 whole entry T106A/F107A): as the sequence (Q9HC16 whole entry Q132A/E133A) above, with T106A, F107A, A132Q, A133E counted along it
Sequence of Apobec3G R136A MAPPIT bait (human) (Q9HC16 whole entry R136A): as the sequence (Q9HC16 whole entry Q132A/E133A) above, with A132Q, A133E, R136A counted along it
Sequence of Apobec3G T32D MAPPIT bait (human) (Q9HC16 whole entry T32D): as the sequence (Q9HC16 whole entry Q132A/E133A) above, with T32D, A132Q, A133E counted along it
Sequence of Apobec3G K63E MAPPIT bait (human) (Q9HC16 whole entry K63E): as the sequence (Q9HC16 whole entry Q132A/E133A) above, with K63E, A132Q, A133E counted along it
Sequence of Apobec3G R55A MAPPIT bait (human) (Q9HC16 whole entry R55A): as the sequence (Q9HC16 whole entry Q132A/E133A) above, with R55A, A132Q, A133E counted along it
Sequence of Apobec3G Y124A MAPPIT bait (human) (Q9HC16 whole entry Y124A): as the sequence (Q9HC16 whole entry Q132A/E133A) above, with Y124A, A132Q, A133E counted along it
Sequence of Apobec3G Y19A MAPPIT bait (human) (Q9HC16 whole entry Y19A): as the sequence (Q9HC16 whole entry Q132A/E133A) above, with Y19A, A132Q, A133E counted along it

With “Gagpol MAPPIT prey (pMG2-Gagpol) (natural protein)” the MAPPIT signal, % of WT [1] was 78 % of WT, the MAPPIT signal, % of WT [2] was 83 % of WT and the MAPPIT signal, % of WT [3] was 106 % of WT. For the same substance, the MAPPIT signal, % of WT [4] was 94 % of WT, the MAPPIT signal, % of WT [5] was 84 % of WT and the MAPPIT signal, % of WT [6] was 74 % of WT. The MAPPIT signal, % of WT [7] was 61 % of WT, the MAPPIT signal, % of WT [8] was 64 % of WT and the MAPPIT signal, % of WT [9] was 127 % of WT. For the same substance, the MAPPIT signal, % of WT [10] was 111 % of WT, the MAPPIT signal, % of WT [11] was 36 % of WT and the MAPPIT signal, % of WT [12] was 71 % of WT. The MAPPIT signal, % of WT [13] was 48 % of WT, the MAPPIT signal, % of WT [14] was 104 % of WT and the MAPPIT signal, % of WT [15] was 80 % of WT. The MAPPIT signal, % of WT [16] was 80 % of WT.
